Measured values published in US20250313626A1 (HARBOUR BIOMED SHANGHAI, published 2025).
Changes are numbered by the printed parent chain. Read-outs that look alike come from different tables or passages of the source.

T1: human CD200R1 isoform a on CHOK1 cells (CHOK1/hCD200R1a) (human, UniProt Q8TD46 25-348)
T1 construct: also called CHOK1/CD200R1a
T1 sequence: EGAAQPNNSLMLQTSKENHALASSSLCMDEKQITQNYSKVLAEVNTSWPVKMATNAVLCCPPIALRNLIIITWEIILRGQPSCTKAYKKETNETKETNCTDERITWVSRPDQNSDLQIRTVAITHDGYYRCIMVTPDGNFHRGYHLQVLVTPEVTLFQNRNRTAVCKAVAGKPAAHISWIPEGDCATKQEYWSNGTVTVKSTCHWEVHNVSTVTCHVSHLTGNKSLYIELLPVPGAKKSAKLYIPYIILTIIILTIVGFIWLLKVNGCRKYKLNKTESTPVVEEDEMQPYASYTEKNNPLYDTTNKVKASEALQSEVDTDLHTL

T2: Cynomolgus macaques CD200R1 isoform a on CHOK1 cells (CHOK1/cynoCD200R1a) (Cynomolgus macaques)
T2 chain: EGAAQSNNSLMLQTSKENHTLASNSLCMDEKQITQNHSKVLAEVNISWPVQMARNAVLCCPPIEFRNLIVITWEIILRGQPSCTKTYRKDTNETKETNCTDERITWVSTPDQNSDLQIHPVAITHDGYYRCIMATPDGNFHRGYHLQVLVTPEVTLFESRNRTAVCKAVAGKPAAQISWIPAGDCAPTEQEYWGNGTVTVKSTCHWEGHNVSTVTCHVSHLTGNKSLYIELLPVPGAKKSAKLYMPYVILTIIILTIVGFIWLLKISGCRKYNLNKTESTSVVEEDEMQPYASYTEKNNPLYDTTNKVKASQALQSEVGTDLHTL

T3: CD200R1a on PathHunter Jurkat CD200R1a signaling cells (Eurofins DiscoverX, 93-1136C19) (human, UniProt Q8TD46 25-348)
T3 sequence: T1 sequence

B1: PR007631 (antibody, human IgG1, kappa, V domains shown)
VH: QVQLVESGGGVVQPGRSLRLSCAASGFTFSSYGFHWVRQAPGKGLEWLGLIWSDARHKDYADSVKGRFTISRDNSKNTLYLQMNSLRAEDTAVYYCARDRIVGEGFDYWGQGTLVTVSS
VL: DIVMTQSPLSLPVTPGEPASISCRSSQSLLHRSGYNYLDWYLQKPGQSPQLLIYLGSYRWSGVPDRFSGSGSGTDFTLKISRVEAEDVGVYYCMQGLQTMYTFGQGTKLEIKR
notes: PTM variant of PR006839 (human IgG1)
B2: PR007972 (antibody, human IgG1, kappa, V domains shown)
VH: B1 VH with S31Y, L50I, R56S, H57N, D59Y
VL: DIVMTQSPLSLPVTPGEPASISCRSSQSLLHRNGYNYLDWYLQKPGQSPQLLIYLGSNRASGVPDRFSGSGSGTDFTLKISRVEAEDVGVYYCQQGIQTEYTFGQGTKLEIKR
notes: as for B1

Columns and labels:
[1] = target: T1, human CD200R1 isoform a on CHOK1 cells …; test: flow cytometry blocking assay: antibody titrated against biotin-labelled human CD200 binding to CHOK1/hCD200R1a cells; head prints EC50 without unit, x axis Log [Ab] (nM), y axis Inhibition %
Procedure: (§1) In brief, CHOK1/hCD200R1a cells were digested and resuspended in 2% BSA in PBS. […] The cells were placed at 4° C. and incubated for 1 hour in the dark. […] 100 μL/well of pre-cooled PBS containing 2% BSA was added to rinse the cells twice, centrifugation was performed at 500 g, 4° C. for 5 minutes, and the supernatant was discarded. Fluorescent secondary antibody (PE Streptavidin, BD, Cat #: 554061, 1:200) was added at 100 μL/well, and incubation was performed at 4° C. for 30 minutes in the dark. The cells were washed twice with 200 μL/well of pre-cooled PBS, and were centrifuged at 500 g, 4° C. for 5 minutes, and the supernatant was discarded. Finally, 200 μL/well of pre-cooled PBS was used to resuspend the cells, and the fluorescence signal values were read using ACEA Novocyte 3000 flow cytometer. IC50 values were calculated.

[2] = target: T2, Cynomolgus macaques CD200R1 isoform a …; test: flow cytometry, CHOK1/cynoCD200R1a cells (APC-A Mean); table beside the curves
[3] = target: T1, human CD200R1 isoform a on CHOK1 cells …; test: flow cytometry blocking assay: biotin-labelled human CD200 binding to CHOK1/hCD200R1a cells; y axis Inhibition %
Procedure: as §1

[4] = target: T1, human CD200R1 isoform a on CHOK1 cells …; test: flow cytometry, CHOK1/hCD200R1a cells (FITC-Mean); table beside the curves
Procedure: This example is intended to investigate the in vitro binding activity of human anti-CD200R1 monoclonal antibodies to human/Cynomolgus macaques CD200R1a expressed on the surface of cells. The anti-CD200R1 antibodies were produced as described in Example 3.4 and the binding experiments at the cell level were performed using CHOK1/hCD200R1a and CHOK1-cynoCD200R1a.
Briefly, CHOK1/hCD200R1a cells and CHOK1-cynoCD200R1a cells were digested, and collected, and then were resuspended in PBS containing 2% BSA, respectively. The cell density was adjusted to 1×10⁶ cells/mL. The cells were seeded in a 96-well V-bottom plate (Corning, #3894) at 100 μL/well, followed by the addition of test antibodies and reference antibodies in a series diluted concentration, each at 100 μL/well. The cells were incubated away from light at 4° C. for 1 h. Thereafter, the cells in each well were rinsed twice with 100 μL of pre-cooled PBS containing 2% BSA, and centrifuged at 500 g at 4° C. for 5 min, and then the supernatant was discarded. 100 μL of fluorescent secondary antibody (Alexa Fluor 488-conjugated AffiniPure Goat Anti-Human IgG, Fcγ Fragment Specific, Jackson, #109-545-098, diluted in a 1:1000 ratio) was added in each well, and the plate was incubated away from light at 4° C. for 1 h. The cells in each well were rinsed twice with 100 μL of pre-cooled PBS containing 2% BSA, and centrifuged at 500 g at 4° C. for 5 min, and then the supernatant was discarded. Finally, the cells in each well were resuspended in 200 μL of pre-cooled PBS containing 2% BSA, and the fluorescence signal values were read using a BD CantoII flow cytometer.

[5] = target: T1, human CD200R1 isoform a on CHOK1 cells …; test: flow cytometry, CHOK1/hCD200R1a cells (FITC-Mean); table beside the curves, head without unit, x axis Log [Ab] (nM)
[6] = target: T3, CD200R1a on PathHunter Jurkat CD200R1a …; test: cell-based or functional assay
[7] = target: T3, CD200R1a on PathHunter Jurkat CD200R1a …; test: cell-based or functional assay; remark: listed apart in the source

Row | Binder | EC50 [1] | EC50 [2] | MFI (MAX) [2] | Blocking(Max) [3] | MFI(Max) [4] | EC50 [5] | IC50 of the inhibition of CD200-induced PathHunter Jurkat CD200R1a luminescence (CHOK1/hCD200 cells as CD200 source) [6] | IC50 of the inhibition of CD200-induced PathHunter Jurkat CD200R1a luminescence (CHOK1/hCD200 cells as CD200 source) [7]
1 | B1 | 323 pM | 3630 pM | 51800 | 99.9% | 19400 | 311 pM | 266 pM | –
2 | B2 | 158 pM | 4480 pM | 51200 | 99.9% | 19000 | 190 pM | – | 368 pM
